Results published in patent publication US7041642B1, “Fluorescent bombesin-like peptides” (PerkinElmer LAS, Inc., priority 1995, dated 2006).
Blank lines part the entries; values can stand above or below the molecule they belong to. Ends that are not written are not given here. fluorescein = fluorescein label (light-emitting moiety) attached to the peptide

What was measured:
BB1 (NMB receptor) = target: T1, BB1 (NMB receptor) (Homo sapiens, UniProt P28336); assay: Radioligand displacement binding, recombinant cells expressing BB1 (NMB receptor)
T1 construct: expressed in transfected cells
T1 sequence (P28336 whole entry): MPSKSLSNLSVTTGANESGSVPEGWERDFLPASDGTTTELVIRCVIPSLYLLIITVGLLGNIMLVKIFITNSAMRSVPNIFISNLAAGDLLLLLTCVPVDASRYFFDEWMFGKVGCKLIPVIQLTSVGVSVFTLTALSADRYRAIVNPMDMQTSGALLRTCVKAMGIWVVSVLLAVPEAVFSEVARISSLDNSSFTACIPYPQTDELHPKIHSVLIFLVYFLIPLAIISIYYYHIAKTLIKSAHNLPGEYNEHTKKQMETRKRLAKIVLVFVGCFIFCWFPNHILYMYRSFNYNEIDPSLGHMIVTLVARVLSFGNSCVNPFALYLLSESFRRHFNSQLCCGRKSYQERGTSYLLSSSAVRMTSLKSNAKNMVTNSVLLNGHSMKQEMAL
Protocol: (§1) All experimental results were obtained by displacing radiolabeled bombesin from the designated receptor, except for the results obtained for GRP which used radiolabeled GRP. Other receptors used in binding assays include the NMB receptor, the bombesin-receptor subtype 2 (BB2) and the bombesin receptor subtype 3 (BB3). As mentioned above, the biological activities of fluoresceinyl-NMC as well as fluoresceinyl-GRP compounds were determined in non-selective assay by binding to BB1, BB2 and BB3 expressed by rat brain neurons whereas the biological activities of fluoresceinyl-NMB and [Dphe^6, Ala^11, Phe^13, Nle^14]Bbn(6–14) compounds were determined by using recombinant cells expressing the BB1 (NMB receptor) or BB2 and BB3 receptors respectively.
Determination of IC50 for labeled peptides. […] In order to fully dissolve the peptide, the sample was reconstituted in 20 uL DMSO, vortexing well to ensure that all powder was completely dissolved, and then adding 0.48 mL of double distilled water. The stock solution was aliquoted to avoid repeated freezing and thawing of peptide. Unused aliquots were stored at −20° C. (protected from light) for maximum 24 hr. […]
(§2) Data for native and labeled peptides were analyzed by non-linear curve fitting. […]

[1] = target: bombesin 3 receptor (BB3 or orphan bombesin receptor), recombinant cells; assay: radioligand displacement, recombinant cells expressing BB3
Chain of bombesin 3 receptor (BB3 or orphan bombesin receptor), recombinant cells (P32247 whole entry): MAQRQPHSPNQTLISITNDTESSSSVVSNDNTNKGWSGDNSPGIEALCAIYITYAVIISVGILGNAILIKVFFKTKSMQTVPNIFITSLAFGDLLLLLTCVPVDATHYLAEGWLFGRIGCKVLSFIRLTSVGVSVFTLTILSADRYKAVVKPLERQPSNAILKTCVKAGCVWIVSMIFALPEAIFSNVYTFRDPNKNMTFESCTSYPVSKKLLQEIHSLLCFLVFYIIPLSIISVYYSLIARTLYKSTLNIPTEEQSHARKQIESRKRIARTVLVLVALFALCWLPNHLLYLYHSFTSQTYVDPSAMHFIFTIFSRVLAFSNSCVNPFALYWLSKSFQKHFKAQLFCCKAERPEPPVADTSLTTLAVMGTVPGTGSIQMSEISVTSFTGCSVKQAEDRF

[2] = target: bombesin 2 receptor (BB2 or GRP receptor), recombinant cells; assay: radioligand displacement, recombinant cells expressing BB2
BB1, BB2, BB3 = assay: Non-selective radioligand displacement binding, rat cerebral cortex / brain neurons
Protocol: Referring now to FIG. 4, a fluoresceinyl-NMC peptide with the amino aid sequence […]NH2 (SEQ ID NO:4) was tested to determine its affinity for NMC receptor sites. The fluoresceinyl-NMC peptide compound absorbs light maximally at 494 nm and features an emission spectrum centered around 518 nm. […] The IC50 is related to the binding constant Ki by the formula IC50=Ki (1+FL/Kd), where FL is the concentration of the free labeled ligand and Kd is the dissociation constant for the labeled ligand.
as §1
Determination of IC50 for labeled peptides. […] In order to fully dissolve the peptide, the sample was reconstituted in 20 uL DMSO, vortexing well to ensure that all powder was completely dissolved, and then adding 0.48 mL of double distilled water. The stock solution was aliquoted to avoid repeated freezing and thawing of peptide. Unused aliquots were stored at −20° C. (protected from light) for maximum 24 hr.
Receptor binding was carried out on tissues of rat cortex homogenate for GRP, recombinant cells expressing BB1 (NMB receptor) for NMB, or recombinant cells expressing BB2 and BB3 for [Dphe^6, Ala^11, Phe^13, Nle^14]Bbn(6–14). […]
as §2

[3] = target: bombesin 1 receptor (BB1 or NMB receptor), recombinant cells; assay: radioligand displacement, recombinant cells expressing BB1 (NMB receptor)
[4] = target: BB1, BB2 and BB3 expressed by rat brain neurons; assay: radioligand displacement (radiolabeled GRP), rat cortex homogenate, non-selective
[5] = target: BB1, BB2 and BB3 expressed by rat brain neurons; assay: radioligand displacement (radiolabeled bombesin), rat cerebral cortex, non-selective
[6] = target: BB1, BB2 and BB3 expressed by rat brain neurons; assay: displacement of radiolabeled bombesin, rat cerebral cortex

Molecule: CSCC[C@H](NC(=O)[C@H](Cc1ccccc1)NC(=O)[C@H](Cc1cnc[nH]1)NC(=O)CNC(=O)[C@@H](NC(=O)[C@H](C)NC(=O)[C@H](Cc1c[nH]c2ccccc12)NC(=O)[C@H](CC(C)C)NC(=O)[C@H](CC(N)=O)NC(=O)CN)[C@@H](C)O)C(N)=O [NMB]
Ki (BB1 (NMB receptor)): 0.1 nM

Molecule: fluoresceinyl-[Dphe^6, Ala^11, Phe^13, Nle^14]Bbn(6-14) (peptide)
Ki [1]: 86 nM
Ki [2]: 0.26 nM

Molecule: VPLPAGGGTVLTKMYPRGNHWAVGHLM [GRP]
Ki (BB1, BB2, BB3; displacement of radiolabeled GRP, BB1, BB2, BB3, rat cortex homogenate): 2 nM

Molecule: {fluorescein (carboxylic form)}-GNHWAVGHLM-NH2 [fluoresceinyl-NMC peptide]
Ki [5]: 3.2 nM
IC50 [6]: 3.2 nM

Molecule: GNLWATGHFM-NH2 [NMB]
Ki [3]: 0.1 nM

Now from value to molecule:

Ki (BB1, BB2, BB3; displacement of radiolabeled bombesin, BB1, BB2, BB3 of rat brain neurons): 3.2 nM
IC50 (BB1, BB2, BB3; read-out: IC50 (concentration at which 50% of the binding is inhibited), displacement of radiolabeled bombesin, receptors on rat cerebral cortex neurons): 3.2 nM
Molecule: fluoresceinyl-NMC peptide, sequence Gly-Asn-His-Trp-Ala-Val-Gly-His-Leu-Met-NH2 (SEQ ID NO:4), fluorescein at N-terminus (fluorescein-GNHWAVGHLM-NH2; listed as Sus scrofa) [Fluo*-NMC]

Ki [1]: 23 nM
Ki [2]: 0.17 nM
Molecule: [Dphe^6, Ala^11, Phe^13, Nle^14]Bbn(6-14) (peptide)

Ki [3]: 7 nM
Molecule: {fluorescein (carboxylic form)}-GNLWATGHFM-NH2 [fluoresceinyl-NMB]

Ki [4]: 2 nM
Molecule: VPLPAGGGTVLTKMYPRGNHWAVGHLM-NH2 [GRP]

Ki [4]: 32 nM
Molecule: {fluorescein (carboxylic form)}-VPLPAGGGTVLTKMYPRGNHWAVGHLM-NH2 [fluoresceinyl-GRP]
